Experimental data from patent US20240270853A1 (Chugai, published 2024).

Assays:
[1] = biological target: T1, Recombinant mouse DDR2 ECD-Fc (R&D systems, Cat. No. 7479-DR-050) (mouse, UniProt Q62371 22-399, biotinylated); assay: Octet tandem binning on captured mouse DDR2 ECD-Fc; competitor Ab1 (bound first) DAB0045
T1 construct: Bought protein; not shown: Fc part of the bought fusion protein, not described
T1 sequence: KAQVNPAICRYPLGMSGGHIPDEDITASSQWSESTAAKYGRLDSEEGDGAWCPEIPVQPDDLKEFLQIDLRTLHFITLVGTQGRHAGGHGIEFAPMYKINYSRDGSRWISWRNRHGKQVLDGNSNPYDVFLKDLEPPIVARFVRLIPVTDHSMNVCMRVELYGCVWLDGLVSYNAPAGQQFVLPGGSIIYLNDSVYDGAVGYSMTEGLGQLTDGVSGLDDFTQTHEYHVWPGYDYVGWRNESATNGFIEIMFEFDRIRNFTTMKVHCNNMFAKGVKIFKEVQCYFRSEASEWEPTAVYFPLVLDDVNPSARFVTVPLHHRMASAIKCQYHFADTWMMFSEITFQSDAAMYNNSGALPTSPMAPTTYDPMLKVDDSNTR
Experimental: (§1) Competitive epitope binning experiment was performed by real-time binding assay using Octet (Pall ForteBio). Recombinant mouse DDR2 ECD-Fc (R&D systems, Cat. No. 7479-DR-050) was biotinylated and captured onto streptavidin biosensor tips (Pall ForteBio) as antigen. The antigen captured tips were dipped into 15 or 40 microgram (micro g)/mL of a first set of antibodies for 300 seconds. Then the tips were incubated with 15 or 40 micro g/mL of a second set of antibodies for 300 seconds. To eliminate an effect of antibody dissociation, the antibody concentration in the second set was the same with that of the first set. Result was analyzed by DATA Analysis HT software (Pall ForteBio, Version 10.0.1.7).
(§2) In Table 3, “Abl” indicates antibody in the first set and “Ab2” indicates antibody in the second set.

[2] = biological target: T1, Recombinant mouse DDR2 ECD-Fc (R&D …); assay: Octet tandem binning on captured mouse DDR2 ECD-Fc; competitor Ab1 (bound first) DAB0048
Experimental: as §1, §2

[3] = biological target: T1, Recombinant mouse DDR2 ECD-Fc (R&D …); assay: Octet tandem binning on captured mouse DDR2 ECD-Fc; competitor Ab1 (bound first) DAB0060
Experimental: as §1, §2

[4] = biological target: T1, Recombinant mouse DDR2 ECD-Fc (R&D …); assay: Octet tandem binning on captured mouse DDR2 ECD-Fc; competitor Ab1 (bound first) DAB0065
Experimental: as §1, §2

[5] = biological target: T1, Recombinant mouse DDR2 ECD-Fc (R&D …); assay: Octet tandem binning on captured mouse DDR2 ECD-Fc; competitor Ab1 (bound first) DAB0069
Experimental: as §1, §2

[6] = biological target: T1, Recombinant mouse DDR2 ECD-Fc (R&D …); assay: Octet tandem binning on captured mouse DDR2 ECD-Fc; competitor Ab1 (bound first) DAB0093
Experimental: as §1, §2

[7] = biological target: T1, Recombinant mouse DDR2 ECD-Fc (R&D …); assay: Octet tandem binning on captured mouse DDR2 ECD-Fc; competitor Ab1 (bound first) DAB0094
Experimental: as §1, §2

B1: DAB0094 (antibody, V domains shown)
VH: QSVEESGGRLVTPGTPLTLTCTVSGFSLSSYSVAWVRQAPGKGLEWIGYISYSGSTYYASWVNGRFTISKTSTTVDLKMTSLTASDTATYFCARDPGYSRDLWGQGTLVTVSS
VL: DVVMTQTPSSVSEPVGGTVTIKCQASQSIGSYLSWYQQKPGQPPKLLIYRASTLASGVSSRFKGSGSGTEFTLTINGLECADAAIYYCQSSYVGVSHGSFGGGTKVEIK
notes: Variable regions from immunized rabbits
- Octet response of Ab2 [1]: 1.22
- Octet response of Ab2 [2]: 1.42
- Octet response of Ab2 [3]: 0.0985
- Octet response of Ab2 [4]: 1.37
- Octet response of Ab2 [5]: 1.3
- Octet response of Ab2 [6]: 1.48
- Octet response of Ab2 [7]: 0

B2: DAB0065 (antibody, V domains shown)
VH: QSVEESGGRLVTPGTPLTLTCTVSGFSLSTSAMSWVRQAPGKGLEWIGMITYGGSGSTWYASWANGRFTISKTSTTVTLKMTSPTTEDTASYFCARVYGTIGSNFYSIYSFNLWGQGTLVTVSS
VL: AAVLTQTPSPVSAAVGGTVSISCQSSKSVYNSNYLSWYQQKPGQPPKLLIYYTSALASGVSSRFKGSGSGTRFTLTISDVQCDDAATYYCAGGYSSSSDNGFGGGTKVEIK
notes: as for B1
- Octet response of Ab2 [1]: 0.0398
- Octet response of Ab2 [2]: 1.65
- Octet response of Ab2 [3]: 1.51
- Octet response of Ab2 [4]: 0
- Octet response of Ab2 [5]: 0.0322
- Octet response of Ab2 [6]: 1.66
- Octet response of Ab2 [7]: 1.55

B3: DAB0060 (antibody, V domains shown)
VH: QSVEESGGRLVTPGTALTLTCTASGFSLSSYDMSWVRQAPGEGLEWIGTIFTEGSTSCASWVKGRFTISRTSTTVDLKITSPTTEDTATYFCVRGTTSNRLWGQGTLVTVSS
VL: DVVMTQTPASVEAVVGATVTIRCQASESITNYLSWYQQKPGQPPKVLIYYASTLESGVPSRFKGSGSGTQFTLTISDLECADAATYYCQSNYFSSSYSYGNTFGGGTKVEIK
notes: as for B1
- Octet response of Ab2 [1]: 0.591
- Octet response of Ab2 [2]: 0.82
- Octet response of Ab2 [3]: 0
- Octet response of Ab2 [4]: 0.766
- Octet response of Ab2 [5]: 0.615
- Octet response of Ab2 [6]: 0.857
- Octet response of Ab2 [7]: -0.054

B4: DAB0045 (antibody, V domains shown)
VH: QSVEESGGRLVTPGTPLTLTCTVSGFSLSSYSMGWVRQAPGKGLEYIGVINTSDSAYYASWAKGRFTISRTSTTVDLKMTSLTTEDTATYFCARAIGYYGSGWGACYFNLWGQGTLVTVSS
VL: AIKMTQTPSSVSAAVGGTVTVNCQASEDIKSYLAWYQQKPGQPPKLLIYSASTLASGVSSRFKGSGSGTQFTLTISDLECADAATYYCQSYYGTSTTGEYNAFGGGTKVEIK
notes: as for B1
- Octet response of Ab2 [1]: 0
- Octet response of Ab2 [2]: 1.2
- Octet response of Ab2 [3]: 1.09
- Octet response of Ab2 [4]: -0.0102
- Octet response of Ab2 [5]: -0.001
- Octet response of Ab2 [6]: 1.13
- Octet response of Ab2 [7]: 1.07

B5: DAB0048 (antibody, V domains shown)
VH: QSVEESGGRLITPGTPLTLTCTASGFSLSIYYMIWVRQAPGKGLEWIGYIWSGSTTDYASWAKGRFTISKTSTTVDLKITSPTTEDTATYFCARVYAGYGYGSDLWGQGTLVTVSS
VL: AAVLTQTPSPVSAAVGGTVSISCQSSQSVYNNNWLAWYQQKPGQPPKLLIYSASTLASGVPSRFKGSGSGTQFTLTISDVQCDDAATYYCAGGYSTNSDKNAFGGGTKVEIK
notes: as for B1
- Octet response of Ab2 [1]: 1.32
- Octet response of Ab2 [2]: 0
- Octet response of Ab2 [3]: 1.31
- Octet response of Ab2 [4]: 1.49
- Octet response of Ab2 [5]: 1.47
- Octet response of Ab2 [6]: -0.0129
- Octet response of Ab2 [7]: 1.5

B6: DAB0069 (antibody, V domains shown)
VH: QSLEESGGRLVTPGTPLTLTCTASGFSLSNYYMQWVRQAPGKGLEWIGIVYPGSSAYYANWAKGRFTISKTSTTVDLKMTSLTTEDTATYFCAGSSNSVYSFNLWGQGTLVTVSS
VL: AYDMTQTPSSVSAAVGGTVTIKCQASESIYRSLAWYQQKPGQPPKLLIYSASTLTSGVSSRFKGSGSGTEFTLTISDLECADAGTYYCQQGGSFSNIVNTFGGGTKVEIK
notes: as for B1
- Octet response of Ab2 [1]: 0.0335
- Octet response of Ab2 [2]: 1.57
- Octet response of Ab2 [3]: 1.35
- Octet response of Ab2 [4]: -0.0058
- Octet response of Ab2 [5]: 0
- Octet response of Ab2 [6]: 1.5
